Reference: patent US20190135932A1 (Pfizer, published 2019)
Several values for one entry are separate records, joined by “and”; a condition that tells them apart may be missing. Equal values may be shown once.

T1: OX40R extracellular and transmembrane domain fused to the intracellular domain of CD40, in 293 cells with an … (UniProt P43489 29-235; P25942 216-277, limits assumed)
T1 sequence (looked up): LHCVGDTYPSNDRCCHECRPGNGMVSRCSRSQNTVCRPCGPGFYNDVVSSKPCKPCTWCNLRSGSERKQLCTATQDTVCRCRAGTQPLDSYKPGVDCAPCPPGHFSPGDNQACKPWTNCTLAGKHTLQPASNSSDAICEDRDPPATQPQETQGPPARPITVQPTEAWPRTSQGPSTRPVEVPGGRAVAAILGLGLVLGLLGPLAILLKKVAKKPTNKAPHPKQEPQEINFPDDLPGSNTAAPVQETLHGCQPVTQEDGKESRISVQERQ

T2: human OX40R on activated primary human T cells (human, UniProt P43489 29-277)
T2 sequence (looked up): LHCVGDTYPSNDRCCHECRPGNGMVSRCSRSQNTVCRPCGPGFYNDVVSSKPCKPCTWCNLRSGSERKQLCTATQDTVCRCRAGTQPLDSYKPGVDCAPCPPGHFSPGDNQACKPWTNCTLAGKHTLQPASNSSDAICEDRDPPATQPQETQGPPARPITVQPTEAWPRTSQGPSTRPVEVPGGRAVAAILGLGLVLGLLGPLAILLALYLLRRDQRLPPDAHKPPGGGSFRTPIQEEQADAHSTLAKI

T3: Biotinylated CD134-muIg (Ancell 513-030) (UniProt P43489 29-214, biotinylated)
T3 construct: extracellular domain; Captured on streptavidin on a CM5 chip; also called OX40R extracellular domain fusion protein (Biacore ligand); not shown: murine Ig part (muIg) of the bought fusion
T3 sequence (looked up): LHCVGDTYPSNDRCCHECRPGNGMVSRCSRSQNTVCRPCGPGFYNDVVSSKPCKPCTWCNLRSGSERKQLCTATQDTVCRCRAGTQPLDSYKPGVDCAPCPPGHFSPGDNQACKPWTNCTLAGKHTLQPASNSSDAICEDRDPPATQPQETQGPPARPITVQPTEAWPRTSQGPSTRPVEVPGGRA


How the values were obtained:
[1] = biological target: T1, OX40R extracellular and transmembrane …; experiment: cell-based or functional assay
[2] = biological target: T4, cynomolgus OX40R on activated cynomolgus monkey T cells / PBMCs (cynomolgus monkey); experiment: cell-based or functional assay
[3] = biological target: T4, cynomolgus OX40R on activated …; experiment: FACS saturation binding on anti-CD3 and anti-CD28 stimulated cynomolgus PBMCs, average over 14 individual monkeys
Method: OX40R-expressing cell lines (see below) or activated primary peripheral blood mononuclear cells (see below) were used to assess binding on both the human and cynomolgus OX40 receptors. Cells were harvested and washed (5×10⁵/tube) using wash buffer at RT°. The wash buffer consisted of PBS, 2% heat-inactivated fetal bovine serum (Hyclone, Logan, Utah) and 0.02% sodium azide (Sigma, St. Louis, Mo.). Next, 100 μl of various concentrations of antibody was added to the cells (starting at 30 ug/ml and using a 3-fold titration) diluted in wash buffer containing 0.005 mg/ml of cytocholasin B (Sigma, St. Louis, Mo.). The cells were gently rocked at RT° for 3 hours. Next, the cells were washed twice and resuspended in 0.5 ml/tube with cold wash buffer and 10,000 events were collected and analyzed using a Becton Dickinson FACSCalibur and CellQuest software (San Jose, Calif.).
Cynomolgus whole blood was obtained using heparinized vacutainer tubes (BD; Franklin Lakes, N.J.) and was diluted 1:4 in PBS. Diluted whole blood was mixed and 15 mls was carefully layered over an equal volume of Histopaque 1077 (Sigma, St Louis, Mo.). […] After a PBS wash, the PBMCs were counted and readjusted to 1×10⁶/ml in tissue culture medium (TCM). […]

[4] = biological target: T4, cynomolgus OX40R on activated …; experiment: cell-based or functional assay; remark: listed apart in the source
[5] = biological target: T2, human OX40R on activated primary human …; experiment: cell-based or functional assay
[6] = biological target: T3, Biotinylated CD134-muIg (Ancell 513-030); experiment: Biacore (SPR), biotinylated CD134-muIg captured on streptavidin, antibody in solution
Method: Biotinylated CD134-muIg (Ancell 513-030), at a concentration of 10 μg/ml at a flow rate of 5 μl/min was manually injected over Flow cells-2, 3 and 4 to achieve 3 surface densities: Fc-2=150RU, Fc-3=375RU and Fc-4=580RU. The different density surfaces were prepared to monitor the possibility of mass transport limited binding during association phase and rebinding during dissociation, both artifacts that are influenced by surface density that must be avoided.

Row | In vitro stimulation of OX40R+ transfected cells (luciferase) (EC50; N = 4) [1] | EC50 of anti-CD3 induced IL-2 production by cynomolgus T cells, donor 2325 [2] | EC50 of anti-CD3 induced IL-2 production by cynomolgus T cells, donor 32081 [2] | EC50 of anti-CD3 induced IL-2 production by cynomolgus T cells, donor 32750 [2] | EC50 of anti-CD3 induced IL-2 production by cynomolgus T cells, donor 32842 [2] | EC50 of anti-CD3 induced IL-2 production by cynomolgus T cells, donor 33062 [2] | EC50 of anti-CD3 induced IL-2 production by cynomolgus T cells, donor 33080 [2] | EC50 of anti-CD3 induced IL-2 production by cynomolgus T cells, donor 33081 [2] | EC50 [3] | EC50 of anti-CD3 induced IL-2 production by monkey cells (mean of 1:3 dilution curves, N=3) [4] | EC50 of anti-CD3 induced IL-2 production by primary human T cells, donor four [5] | EC50 of anti-CD3 induced IL-2 production by primary human T cells, donor one [5] | EC50 of anti-CD3 induced IL-2 production by primary human T cells, donor three [5] | EC50 of anti-CD3 induced IL-2 production by primary human T cells, donor two [5] | Kd [6] | koff [6] | Binder
1 | 0.33 µg/ml and 2.2 nM | 0.002 µg/mL | 0.007 µg/mL | 0.007 µg/mL | 0.011 µg/mL | 0.028 µg/mL | 0.031 µg/mL | 0.008 µg/mL | 0.354 µg/mL | 0.022 µg/mL | – | – | – | – | – | – | human monoclonal antibody 11D4 (antibody, V domains shown, IgG2 heavy chain, kappa light chain; allotypes G2(n-) and Km3; Alexa Fluor 647 conjugate was used in the species cross-reactivity FACS) VH: EVQLVESGGGLVQPGGSLRLSCAASGFTFSSYSMNWVRQAPGKGLEWVSYISSSSSTIDYADSVKGRFTISRDNAKNSLYLQMNSLRDEDTAVYYCARESGWYLFDYWGQGTLVTVSS VL: DIQMTQSPSSLSASVGDRVTITCRASQGISSWLAWYQQKPEKAPKSLIYAASSLQSGVPSRFSGSGSGTDFTLTISSLQPEDFATYYCQQYNSYPPTFGGGTKVEIKR
2 | – | – | – | – | – | – | – | – | – | – | 0.024 µg/mL | 0.024 µg/mL | 0.013 µg/mL | 0.135 µg/mL | 0.49 µg/mL and 3.38 nM | 0.00029 s⁻¹ | human monoclonal antibody 18D8 (antibody, human IgG2, kappa, V domains shown) VH: EVQLVESGGGLVQPGRSLRLSCAASGFTFDDYAMHWVRQAPGKGLEWVSGISWNSGSIGYADSVKGRFTISRDNAKNSLYLQMNSLRAEDTALYYCAKDQSTADYYFYYGMDVWGQGTTVTVSS VL: EIVVTQSPATLSLSPGERATLSCRASQSVSSYLAWYQQKPGQAPRLLIYDASNRATGIPARFSGSGSGTDFTLTISSLEPEDFAVYYCQQRSNWPTFGQGTKVEIKR
